# Reference: patent publication US20210363266A1 (JIANGSU HENGRUI MEDICINE, published 2021)
# Read-outs that look alike come from different tables or passages of the source.
# Assays:
# [1] = biological target: T1, human 4-1BB His protein (Sinobiological, Beijing #10041-H08H) (human, UniProt Q07011 24-186, biotinylated in the capture ELISA (sites not given)); experiment: SPR Biacore T200, antibody amine-coupled, 4-1BB His as analyte, 1:1 model
# T1 construct: Bought protein; also called biotinylated 4-1BB-his protein; not shown: His tag
# Experimental: (§1) The recombinant anti-4-1BB antibodies to be tested of the present application were covalently linked to CMS (GE) chip by NHS standard amino coupling method with a kit available from Biacore. Then, a series of gradient concentrations of human 4-1BB His protein (Sinobiological, Beijing #10041-H08H) diluted in the same buffer were injected at a flow rate of 10 μL/min. Regeneration was performed with regeneration reagents provided in the kit. Antigen-antibody binding kinetics were followed for 3 minutes and dissociation kinetics were followed for 10 minutes. The resulting data were analyzed using 1:1 (Langmuir) binding model with BIAevaluation software available from GE.
# [2] = biological target: T1, human 4-1BB His protein …; experiment: capture ELISA, antibody captured, biotinylated 4-1BB-his
# Experimental: The goat anti-mouse IgG secondary antibody (Jackson Immuno Research, cat #115-006-071) was diluted to a concentration of 2 μg/ml with PBS buffer, pH 7.4, added into a 96-well microtiter plate at 100 μl/well, and placed in an incubator at 37° C. for 2 hours. The plate was washed once with PBST, 200 μl/well of 5% skim milk (skim milk powder, Bright Dairy) blocking solution diluted with PBST was added, and incubated at 37° C. for 2 hours or at 4° C. overnight (16-18 hours) for blocking. After the blocking was finished, the blocking solution was discarded and the plate was washed 4 times with PBST.
# The test mouse sera or antibodies were diluted to various concentrations with 5% NHS sample dilution solution (2.5% skim milk in PBST), incubated at room temperature for 40 minutes, added into the plate at 100 μl/well, and incubated at 37° C. for 40 minutes. After the incubation, the plate was washed 4 times with PBST, 100 μl/well of the biotinylated 4-1BB-his protein (Sinobiological, Beijing #10041-H08H) diluted with the sample dilution solution was added, and incubated at 37° C. for 40 minutes. After the incubation, the plate was washed 4 times with PBST, 100 μl/well of HRP-labeled streptavidin (Jackson Immuno Research, cat #016-030-084) diluted with PBST was added, and incubated at 37° C. for 40 minutes. The plate was washed 4 times with PBST, 100 μl/well of TMB chromogenic substrate (Huzhou Innoreagents Biotechnology Co., Ltd.) was added, incubated at room temperature for 10-15 min in the dark, and 50 μl/well 1M H₂SO₄ was added to terminate the reaction. The absorbance was read at 450 nm under a microplate reader (Beijing Prang New Technology Co., Ltd., Model DNM-9602) and the resulting data were analyzed. The capture ELISA results of three hybridoma mouse antibodies and the Pfizer reference antibody MOR7480 and the BMS reference antibody Urelumab were shown in FIG. 1.
# [3] = biological target: T1, human 4-1BB His protein …; experiment: SPR Biacore T200, antibody amine-coupled, 4-1BB His as analyte, 1:1 model; remark: listed apart in the source
# Experimental: as §1
# [4] = biological target: T1, human 4-1BB His protein …; experiment: SPR Biacore T200
# [5] = biological target: T1, human 4-1BB His protein …; experiment: blocking ELISA: 4-1BB-his coated, antibody varied, competitor 4-1BBL-Fc at 0.8 ng/ml
# Experimental: The 4-1BB-his protein was diluted to a concentration of 2 μg/ml with a carbonate buffer pH 9.6, and added into a 96-well microtiter plate at a volume of 100 μl/well, and placed in an incubator at 37° C. for 2 hours. The plate was washed once with PBST, 200 μl/well of 5% skim milk (skim milk powder, Bright Dairy) blocking solution diluted with PBST was added, and incubated at 37° C. for 2 hours or at 4° C. overnight (16-18 hours) for blocking. After the blocking was finished, the blocking solution was discarded and the plate was washed 4 times with PBST.
# The test mouse sera or antibodies and internal control 4-1BBL were diluted to various concentrations with a sample diluent solution (2.5% skim milk in PBST), added into a plate at 100 μl/well, and incubated in an incubator at 37° C. for 40 minutes. After the incubation, the plate was washed 4 times with PBST, 100 μl/well of 0.8 ng/ml 4-1BBL-Fc (Acro, #41L-H5257) protein diluted with a sample dilution solution was added, and incubated at 37° C. for 40 minutes. […] The absorbance was read at 450 nm under a microplate reader (Beijing Prang New Technology Co., Ltd., Model DNM-9602) and the resulting data were analyzed. […]
# [6] = biological target: human 4-1BB on the reporter cell strain HEK293F-h4-1BB-NFkB (human, UniProt Q07011 24-255); experiment: cell-based or functional assay
# Sequence of human 4-1BB on the reporter cell strain HEK293F-h4-1BB-NFkB (Q07011 24-255): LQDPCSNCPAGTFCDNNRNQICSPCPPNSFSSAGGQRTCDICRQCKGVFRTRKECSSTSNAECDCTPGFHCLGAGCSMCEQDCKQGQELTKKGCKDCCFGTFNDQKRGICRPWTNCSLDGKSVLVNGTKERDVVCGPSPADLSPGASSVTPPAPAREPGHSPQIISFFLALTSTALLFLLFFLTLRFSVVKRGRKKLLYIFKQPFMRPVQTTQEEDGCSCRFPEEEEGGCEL
Binder,Kd [1],koff [1],kon [1],EC50 [2],Kd [3],koff [3],kon [3],fold affinity against the reference antibody MOR7480 [4],EC50 [5],luciferase activity [6]
"MOR7480 (Pfizer) (antibody, V domains shown) VH: QVQLVQSGAEVKKPGESLKISCKGSGYSFSTYWISWVRQMPGKGLEWMGKIYPGDSYTNYSPSFQGQVTISADKSISTAYLQWSSLKASDTAMYYCARGYGIFDYWGQGTLVTVSS VL: DIELTQPPSVSVAPGQTARISCSGDNIGDQYAHWYQQKPGQAPVVVIYQDKNRPSGIPERFSGSNSGNTATLTISGTQAEDEADYYCATYTGFGSLAVFGGGTKLTVL",0.417 nM,0.000336 s⁻¹,805000 M⁻¹ s⁻¹,0.084 µg/mL,0.417 nM,0.000336 s⁻¹,805000 M⁻¹ s⁻¹,–,–,–
"humanized antibody huB1E7 (VH-c heavy chain and VL-c light chain) (antibody, human IgG2, kappa, V domains shown, also called huB1E7-IgG1) VH: EVQLVQSGAEVKKPGSSVKVSCKASGYTFTSYGLNWVRQAPGQGLEWMGYINPGSGYTKYNEKFEGRVTITADKSTSTAYMELSSLRSEDTAVYYCARWGLGRNWNFAVWGQGTLVTVSS VL: DIVMTQSPDSLAVSLGERATINCRASESVDSYGNTFMHWYQQKPGQPPKLLIYRASNLESGVPDRFSGSGSGTDFTLTISSLQAEDVAVYYCQQSNEDPLTFGQGTKLEIKR",–,–,–,–,1.95 nM,0.00663 s⁻¹,3.39e+06 M⁻¹ s⁻¹,–,–,–
"chimeric antibody ChB1E7 (antibody, V domains shown) VH: EVQLQQSGAELVRAGSSVEMSCKASGYTFTSYGLNWVKQRPGQGLEWIGYINPGSGYTKYNEKFEGKTTLTVDKSSSTVYMQLRSLTSEDSAVYFCARWGLGRNWNFAVWGTGTTVTVSS VL: DIVLTQSPASLAVSLGQRATMSCRASESVDSYGNTFMHWYQQKPGQPPKLLIYRASNLESGIPARFSGSGSGTDFTLTINPVEADDVATYYCQQSNEDPLTFGSGTKLEIK",1.48 nM,0.006 s⁻¹,4.05e+06 M⁻¹ s⁻¹,–,–,–,–,–,–,–
"chimeric antibody ChB1E10 (antibody, V domains shown) VH: EVQLVESGGGLVEPGGSLKLSCAASGFTFGDYYMYWVRQTPEKRLEWVATISDGGSYTYYPDNVKGRFTISRDNAKNSLDLQMSHLKSEDTAMYYCARYYSKALYAMDYWGRGTSVTVSS VL: DIVLTQSPASLAVSLGQRATLSCRASKSVSTSGFSYIHWYQQKPGQPPKLLIYTASNLESGVPARFSGSGSGTDFTLNIHPVEEEDAATYYCQHSRELPLTFGAGTKLEVK",0.423 nM,0.000542 s⁻¹,1.28e+06 M⁻¹ s⁻¹,–,–,–,–,–,–,–

# Other lines, results leading:
Kd [1],koff [1],kon [1],EC50 [2],Kd [3],koff [3],kon [3],fold affinity against the reference antibody MOR7480 [4],EC50 [5],luciferase activity [6],Binder
–,–,–,–,0.267 nM,0.00263 s⁻¹,9.85e+06 M⁻¹ s⁻¹,~2 fold,–,–,"humanized antibody huB1E10 (VH-c heavy chain and VL-c light chain) (antibody, human IgG2, kappa, V domains shown, also called huB1E10-IgG1) VH: EVQLVESGGGVVQPGRSLRLSCAASGFTFGDYYMYWVRQAPGKGLEWVATISEGGSYTYYPDNVKGRFTISRDNAKNTLYLQMNSLRAEDTAVYYCARYYSKALYAMDYWGRGTLVTVSS VL: EIVLTQSPATLSLSPGERATLSCRASKSVSTSGFSYIHWYQQKPGQPPRLLIYTASNLESGVPARFSGSGSGTDFTLTISSLEPEDFAVYYCQHSRELPLTFGQGTKLEVKR"
–,–,–,0.332 µg/mL,–,–,–,–,0.592 µg/mL,1100,"murine mAb B1E7 (antibody, V domains shown, Murine hybridoma antibody) VH: EVQLQQSGAELVRAGSSVEMSCKASGYTFTSYGLNWVKQRPGQGLEWIGYINPGSGYTKYNEKFEGKTTLTVDKSSSTVYMQLRSLTSEDSAVYFCARWGLGRNWNFAVWGTGTTVTVSS VL: DIVLTQSPASLAVSLGQRATMSCRASESVDSYGNTFMHWYQQKPGQPPKLLIYRASNLESGIPARFSGSGSGTDFTLTINPVEADDVATYYCQQSNEDPLTFGSGTKLEIK"
–,–,–,0.881 µg/mL,–,–,–,–,–,2520,"murine mAb B1E10 (antibody, V domains shown, Murine hybridoma antibody) VH: EVQLVESGGGLVEPGGSLKLSCAASGFTFGDYYMYWVRQTPEKRLEWVATISDGGSYTYYPDNVKGRFTISRDNAKNSLDLQMSHLKSEDTAMYYCARYYSKALYAMDYWGRGTSVTVSS VL: DIVLTQSPASLAVSLGQRATLSCRASKSVSTSGFSYIHWYQQKPGQPPKLLIYTASNLESGVPARFSGSGSGTDFTLNIHPVEEEDAATYYCQHSRELPLTFGAGTKLEVK"
–,–,–,0.0559 µg/mL,–,–,–,–,0.417 µg/mL,965,"murine mAb B1A7 (antibody, V domains shown, Murine hybridoma antibody) VH: QVTLKESGPGILQPSQTLSLTCSFSGFSLSTSGMGVGWIRQPSGKGLEWLAHIWWDDVKRYNPALKSRLTISKDTSSSQVFLKIASVDTADTATYYCAQMTSSVFAYWGQGTLVTVSA VL: DIVLTQSPDSLAVSLGQRATISCRASESVDSYGHSFMHWYQQKPGQPPKLLIYRASNLESGIPARFSGSGSRTDFTLTINVVEADDVATYYCHQSYEEPWTFGGGTKLEIK"
